Biological target: His-SYMREM1 (Medicago truncatula)
Experiment: SEC; analytical gel filtration of fresh recombinant His-SYMREM1, calibrated with standard proteins; apparent molecular weight compared with the calculated size of a dimer

His-SYMREM1 (natural protein)
stoichiometry N: 2
